Results taken from patent publication US20240343810A1 (published 2024).
One block for each binder: values may come before it.

Key:
[1] = molecular target: T1, Biotinylated human ICOS protein (human, UniProt Q9Y6W8 21-140, limits assumed, biotinylated (sites not given)); test: SPR ProteOn avidity format, biotinylated human ICOS on NLC chip; calculated on-rate
T1 construct: Captured on the NLC chip in the avidity SPR
T1 sequence: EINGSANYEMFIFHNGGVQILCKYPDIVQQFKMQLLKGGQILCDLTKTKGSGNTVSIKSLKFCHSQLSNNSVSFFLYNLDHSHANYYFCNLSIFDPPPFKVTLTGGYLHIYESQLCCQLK
Protocol: Biotinylated human ICOS protein diluted at 7.5 μg/mL in running buffer (1× HBS-EP+ Buffer Technova, cat. No. H8022) was captured on a NLC sensor chip (Bio-Rad, cat No 1765021). The surface was then blocked using biocytin (Sigma Aldrich, cat No B1758) at 1 mg/mL.
The assay was carried out at 25° C.
The buffer injection (i.e. 0 nM) was used to double reference the sensorgrams. […]

[2] = molecular target: T2, human ICOS expressed on cells (human, UniProt Q9Y6W8 21-199); test: Flow cytometry on CHO-S human ICOS cells, anti-human IgG AF647, N=1
T2 construct: also called CHO-S cells transfected with human ICOS; hICOS
T2 sequence: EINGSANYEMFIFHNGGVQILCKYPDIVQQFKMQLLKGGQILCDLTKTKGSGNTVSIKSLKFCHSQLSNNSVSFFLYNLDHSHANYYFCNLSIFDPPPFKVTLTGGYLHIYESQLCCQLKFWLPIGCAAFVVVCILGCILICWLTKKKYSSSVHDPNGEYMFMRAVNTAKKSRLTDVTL
Protocol: CHO—S cells transfected with either human ICOS or mouse ICOS were resuspended in FACS buffer (PBS+1% w/v BSA+0.1% w/v sodium azide) and transferred to a 96-well V-bottom plate (Greiner) at a density of 1×10⁵ cells per well. mAb and mAb² were titrated in FACS buffer, 1 in 3 dilution across 11 points from a starting working concentration of 400 nM. Plates were centrifuged at 300×g for 3 minutes, supernatant discarded and 50 μL mAb or mAb² solution were added to cells and incubated at 4° C. for 1 hour. Cells were washed with 150 μL of PBS and centrifuged at 300×g for 3 minutes, supernatant was discarded and cell pellet resuspended in 150 μL PBS added. This wash step was repeated twice. Bound mAb or mAb² was detected by addition of 50 μL of anti-human 647 (Jackson ImmunoResearch) diluted to 3 ug/ml in FACS buffer. Cells were incubated for 1 hour at 4° C. in the dark. Cells were washed with 150 μL of PBS and centrifuged at 300 g for 3 minutes, supernatant was discarded and cell pellet resuspended in 150 μL PBS added. This wash step was repeated twice. Cells were fixed with 25 μL 4% v/v paraformaldehyde, incubated for 20 minutes at 4° C., cells were pelleted by centrifugation at 300×g and the supernatant discarded. […] AlexaFluor 647 signal intensity (geometric mean) was measured by flow cytometry using a Beckman Coulter CytoFLEX instrument.

[3] = molecular target: T3, human ICOS-mFc (Chimerigen) (human, UniProt Q9Y6W8 21-140); test: DELFIA ELISA on coated human ICOS-mFc, N=3
T3 construct: Bought; also called recombinant human ICOS protein; hICOS; not shown: mouse Fc of the bought fusion
T3 sequence: T1 sequence
Protocol: (§1) Recombinant ICOS proteins, human ICOS-mFc or mouse ICOS-mFc (Chimerigen) were diluted in 1×PBS and added to Black Hi-bind plates (Griener) at 1 μg/ml, 50 μl/well. Recombinant PD-L1 proteins, human PD-L1-Flag-His or mouse-His were diluted in 1×PBS and added to Black Hi-bind plates (Griener) at 4 μg/ml, 50 μl/well. The plates were left overnight at 4° C. The next day plates were washed 3× with 300 μl/well of 1×PBS+0.1% Tween and blocked with 200 ul/well of 1×PBS+1% BSA blocking buffer for 1 hr at RT on a plate shaker. Plates were washed 3× with 300 μl/well of 1×PBS+0.1% Tween.
(§2) However, human-PD-L1 mAb² antibodies were diluted in 1×PBS+0.1% BSA buffer and diluted 1 in 2 from a starting working concentration of 0.066 μM over an 11 point titration. Titrated antibodies were added to the plates, 50 μl/well and left to incubate for 1 hr at R.T on a plate shaker. Plates were washed 3× with 300 μl/well of 1×PBS+0.1% Tween.
(§3) DELFIA® Eu-labelled Anti-human IgG (Perkin-Elmer) was diluted 1:500 in DELFIA Assay buffer (Perkin-Elmer) and added to the assay plate (50 μl/well), left to incubate for 1 hr at RT on a plate shaker. […] After incubation, assay was read on Envision plate reader (Perkin Elmer), Time-resolved fluorescence (TRF) was measured at 615 nm.

[4] = molecular target: T4, mouse ICOS-mFc (Chimerigen) (mouse, UniProt Q9WVS0 21-141, limits assumed); test: DELFIA ELISA on coated mouse ICOS-mFc, N=3
T4 construct: Bought; also called recombinant mouse ICOS protein; mICOS; not shown: mouse Fc of the bought fusion
T4 sequence: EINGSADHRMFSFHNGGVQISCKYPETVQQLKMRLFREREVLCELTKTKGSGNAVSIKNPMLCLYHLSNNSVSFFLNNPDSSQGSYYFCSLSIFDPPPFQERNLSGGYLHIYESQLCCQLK
Protocol: as §1, §2, §3

[5] = molecular target: T4, mouse ICOS-mFc (Chimerigen); test: HTRF, mouse ICOS-mFc, competitor mouse B7-H2-Alexa 647, average
Protocol: (§4) 5 μl of human ICOS-mFc (Chimerigen) at 20 nM (5 nM final) or 5 ul of mouse ICOS-mFc (Chimerigen) at 4 nM (1 nM final) were added to relevant assay wells. Plate was incubated for 1 hour (hr) at room temperature (RT).
(§5) After incubation, assay was read on Envision plate reader (Perkin Elmer) using a standard HTRF protocol. 620 nm and 665 nm channel values were exported to Microsoft Excel and % Delta-F and % Neutralisation calculations performed. Titration curves and IC50 values [M] were plotted using Graphpad (Prism). IC50 values were calculated by first transforming the data using equation X=Log(X). The transformed data was then fitted using nonlinear regression, using fitting algorithm, log (inhibitor) vs. response—variable slope (four parameters).

[6] = molecular target: T3, human ICOS-mFc (Chimerigen); test: HTRF, human ICOS-mFc, competitor human B7-H2-Alexa 647, n1
Protocol: as §4, §5

- kon [1]: 7990 M⁻¹ s⁻¹
- EC50 [2]: 30.1 nM
- EC50 [3]: 41.3 nM
- EC50 [4]: 1.73 nM
- IC50 [5]: 8.71 nM
- IC50 [6]: 0.96 nM
B1: STIM001 (antibody, human IgG1, kappa)
heavy: not shown
light: DIVMTQSPLSLPVTPGEPASISCRSSQSLLHSNEYNYLDWYLQKPGQSPQLLIFLGSNRASGVPDRFSGSGSGTDFTLKITRVEAEDVGIYYCMQSLQTPLTFGGGTKVEIKRTVAAPSVFIFPPSDEQLKSGTASVVCLLNNFYPREAKVQWKVDNALQSGNSQESVTEQDSKDSTYSLSSTLTLSKADYEKHKVYACEVTHQGLSSPVTKSFNRGEC
notes: Anti-ICOS monospecific antibody, tested as human IgG1; also called STIM001 monoclonal IgG1 antibody

- kon [1]: 267000 M⁻¹ s⁻¹
- EC50 [2]: 7.22 nM
- EC50 [3]: 0.727 nM
- EC50 [4]: 0.338 nM
- IC50 [5]: 0.37 nM
- IC50 [6]: 0.43 nM
B2: STIM003 (antibody, human IgG1, kappa)
heavy: not shown
light: EIVLTQSPGTLSLSPGERATLSCRASQSVSRSYLAWYQQKRGQAPRLLIYGASSRATGIPDRFSGDGSGTDFTLSISRLEPEDFAVYYCHQYDMSPFTFGPGTKVDIKRTVAAPSVFIFPPSDEQLKSGTASVVCLLNNFYPREAKVQWKVDNALQSGNSQESVTEQDSKDSTYSLSSTLTLSKADYEKHKVYACEVTHQGLSSPVTKSFNRGEC
notes: Anti-ICOS monospecific antibody, tested as human IgG1; also called STIM003 monoclonal IgG1 antibody
